Results on 23 sequences are retold here after the DeepSol protein solubility set.

The nature of the series: soluble on expression in E. coli; label from the status in PepcDB or PDB records.
For the sequence “MAHVVILGAGTGGMPAAYEMKEALGSGHEVTLISANDYFQFVPSNPWVGVGWKERDDIAFPIRHYVERKGIHFIAQSAEQIDAEAQNITLADGNTVHYDYLMIATGPKLAFENVPGSDPHEGPVQSICTVDHAERAFAEYQALLREPGPIVIGAMAGASAFGPAYEYAMIVASDLKKRGMRDKIPSFTFITSEPYIGHLGIQGVGDSKGILTKGLKEEGIEAYTNCKVTKVEDNKMYVTQVDEKGETIKEMVLPVKFGMMIPAFKGVPAVAGVEGLCNPGGFVLVDEHQRSKKYANIFAAGIAIAIPPVETTPVPTGAPKTGYMIESMVSAAVHNIKADLEGRKGEQTMGTWNAVCFADMGDRGAAFIALPQLKPRKVDVFAYGRWVHLAKVAFEKYFIRKMKMGVSEPFYEKVLFKMMGITRLKEEDTHRKAS”, the “soluble on expression in E. coli” value was “soluble”.

For “MKRIAFVFSTAPHGTAAGREGLDALLATSALTDDLAVFFIADGVFQLLPGQKPDAVLARDYIATFKLLGLYDIEQCWVCAASLRERGLDPQTPFVVEATPLEADALRRELANYDVILRF”, the “soluble on expression in E. coli” value is “soluble”.

As to “MCMDLESLLAIKHFRADQAQLALKRQQQAAVAAAAQRQAQGRLDDCRLWAGQLENRLYAELCRRIVKTRDIDEVLQRVGHARDRQASLALQLDDAVRRHEHEIQLLAQQREQHRECFQAQQRIAELVRLQQVEAAALRESLEDREIQEAIELSARGRDDASRAGDGLARLLEHHHHHH”, the “soluble on expression in E. coli” value is recorded as “not soluble”.

“VFQSILDEIDVGLHVVDEHGNTIVYNNKMMQIEDMEKHDVLNKNLMDVFMFSKQQDSTLVQALQEGKTIKNVKQSYFNNKGQEITTINHTYPIVQDGKIRGAVEIAKDVT”: the “soluble on expression in E. coli” value is “not soluble”.

With “MEIVLTREKMEITATPIRTRYIDRNEDFVSESIHSLKKEIENGFEIKNGDFLVVSEKFIATSEDNFVDESLADPKFWAYFTYYLSKYGWGYVLGPLLGTRGDRVKNLRKMPKTETLKHKQIVIENVGLIYALKPASEGGIDLTNVPGTYASLLPENPEYSAKKLHKKIKEDLDLDLTVMVIDTDATYRFFNWYVTALPIAVEGITSKIGVFGYILGKFGKILNQGGLCGATPLAITGNENYKKYPLKTLLYIANLSDTSQVPYTKSIHDLMKKYNTFEITVDVLKEMEHSPLVIVKCE”, the “soluble on expression in E. coli” value was “not soluble”.

Take “MGSDKIHHHHHHMEMRFFVLGAGSWGTVFAQMLHENGEEVILWARRKEIVDLINVSHTSPYVEESKITVRATNDLEEIKKEDILVIAIPVQYIREHLLRLPVKPSMVLNLSKGIEIKTGKRVSEIVEEILGCPYAVLSGPSHAEEVAKKLPTAVTLAGENSKELQKRISTEYFRVYTCEDVVGVEIAGALKNVIAIAAGILDGFGGWDNAKAALETRGIYEIARFGMFFGADQKTFMGLAGIGDLMVTCNSRYSRNRRFGELIARGFNPLKLLESSNQVVEGAFTVKAVMKIAKENKIDMPISEEVYRVVYEGKPPLQSMRDLMRRSLKDEFWAS”: the “soluble on expression in E. coli” value is “soluble”.

As for “MGSDKIHHHHHHMTLKIEHLTGGYTGVPVIKDINLEIKPGEALGLIGLNGAGKSTTIKHILGLLRPQKGKIILNDVVLTQQPTKFKREVAYIPETPILYPELTLKEHLELTMLSYKLDEKKAWERAHELLKMFRLDDKLEWLPIHFSKGMRQKVMIVSAFLADTSLLVIDEPFTGLDPLAVANLIDLIKQAIANNKMVLMTTHVLADAQQAISNYAVLNNGTIEIIGNLQDIREHYGLKPDDPFDKLYLALNREDHGNA”, the “soluble on expression in E. coli” value is “not soluble”.

Consider “MNLNIDWSKDFQEFQEILNSGIHPEWLYCAKANLVLEPAYTGEGKQFFSTQDIIYASKIIPFFLEHHHHHH”, for which the “soluble on expression in E. coli” value was “not soluble”.

Consider “MAGFISNFFGVGDSDSQYEEPTEASQAAAPTESATNTRSTPKVVPMQGGKSVNSKIALFEPKIYSDVKEIATQLLKNQAVIINFDHVDDEMARRIVDFLTGTVFAINGEIERIGDEIFLCIPENYEVSGSTTSQFDTSKLLEHHHHHH”, for which the “soluble on expression in E. coli” value is reported as “not soluble”.

Turning to “MAHHHHHHMQDDKINSKDDISSSSSCEENDENKNILNPPNRTKMSKGERRARKMLVKLGLKAIPNVHKVIIKKSQKMVFAVSNVEVYKVEGTDSYVIFGDAKTDDITNSINNFIPENLPKDVDVPVEPEINFEAADKEEQKVKDLDDENVGDVSMDDVELIMSQTKCSRDMAISALRKNNNDFVQSIMELSG”, the “soluble on expression in E. coli” value was “soluble”.

Consider “MSNWPYPHIVAHRGGGKLAPENTLAAIDVGARYGHTMIEFDAKLSKDGEIFLLHDDNLERTSNGWGVAGELNWQDLLRVDAGGWFSGEFKGEPLPLLSQVAERCRKHGMMANIEIKPTTGSGRLTGRVVALAARELWAGMTPPLLSSFEIEALEAAQAAAPELPRGLLLDKWREDWRELTTRLGCVSLHLNHKLLDETRVQEIKAAGLRILVYTVNQPQRAAELLRWGVDCICTDRIDDIGPHFQF”, for which the “soluble on expression in E. coli” value was “not soluble”.

“MGSDKIHHHHHHMYETFMKRAIELAKKGLGRVNPNPPVGAVVVKDGRIIAEGFHPYFGGPHAERMAIESARKKGEDLRGATLIVTLEPCDHHGKTPPCTDLIIESGIKTVVIGTRDPNPVSGNGVEKFRNHGIEVIEGVLEEEVKKLCEFFITYVTKKRPFVALKYASTLDGKIADHRGDSKWITDKLRFKVHEMRNIYSAVLVGAGTVLKDNPQLTCRLKEGRNPVRVILDRKGVLSGKVFRVFEENARVIVFTESEEAEYPPHVEKALSDCSVESILRNLYERDIDSVLVEGGSKVFSEFLDHADVVFGFYSTKIFGKGLDVFSGYLSDVSVPPKFKVVNVEFSDSEFLVEMRPCSRE”: the “soluble on expression in E. coli” value is listed as “soluble”.

As for “GLDNELSLVDGQDRTLTVQQWDTFLNGVFPLDRNRLTREWFHSGRAKYIVAGPGADEFEGTLELGYQIGFPWSLGVGINFSYTTPNILIDDGDITRPPFGLNSVITPNLFPGVSISADLGNGPGIQEVATFSVDVSGAEGGVAVSNAHGTVTGAAGGVLLRPFARLIASTGDSVTTYGEPWNMN”, the “soluble on expression in E. coli” value is listed as “soluble”.

On to “DVQLQESGTVLARPGASVKMSCKASGYSFTSYWMHWIKQRPGQGLEWIGGVYPGDSHTSYNQKFKGKAKLTAVTSASTAYMELSSLTNEDSAVYYCTRSGFDYGNEDWGQGTTLTVSSAKTTPPSVYPLAPGSAAQTNSMVTLGCLVKGYFPEPVTVTWNSGSLSSGVHTFPAVLQSDLYTLSSSVTVPSSPRPSETVTCNVAHPASSTKVDKKI”, for which the “soluble on expression in E. coli” value is “soluble”.

On to “MVQALPSNIGIQQVTLKVADLDKMVNFYTKTIGLKLLKQGEGRAWLAPQGTNDAILVLKELTAGEENQGTTGLYHIAFLLPTRKDLGNMLLWLLQENVQIGAADHGYSEALYLSDPENNGIEIYWDKPEEVWDIRPNGEIIGVTEELDGDSLAAEADGHWLGISEGSKIGHIHLKVADLDATETFYKNLGFGLKSNFGQQAKFFAAGQYHHHIGTNTWSGKQLPTIQENQFGLENYTFRLPTAADLEIVQANAEEAKLHFIAKDHLLALEDPSGMIIQFTY”, for which the “soluble on expression in E. coli” value is on record as “not soluble”.

“MSNLLGPRDANGIPVPMTVDESIASMKASLLKKIKRSAYVYRVDCGGCNGCEIEIFATLSPLFDAERFGIKVVPSPRHADILLFTGAVTRAMRSPALRAWQSAPDPKICISYGACGNSGGIFHDLYCVWGGTDKIVPVDVYIPGCPPTPAATLYGFAMALGLLEQKIHARGPGELDEQPAEILHGDMVQPLRVKVDREARRLAGYRYGRQIADDYLTQLGQGEEQVARWLEAENDPRLNEIVSHLNHVVEEARIRLEHHHHHH”: the “soluble on expression in E. coli” value is recorded as “not soluble”.

For “MGSDKIHHHHHHMMLNQYQIFTMVDNLSLLHHKNDPMNKNDLINTKSTLCPCGSKQLYSKCCEPYHLSHAVAERPEHLMRSRYSAFVLRQFHYLITTHHADYLHGLTEQQLAQGDVQWLGLQVLSSKQESDHGEVTFKAWFIEDKHIDAIYECSSFIKQDGCWFYTHGQQMQTPLPSRNDACICSSGKKFKLCCAKLMR”, the “soluble on expression in E. coli” value is “not soluble”.

With “MGSDKIHHHHHHMNKLINRISPETSENRILHAGFSIILMSEEITQTLSGLSSDMIIFILSGSITIYSTKEEKKTIGEQYMIFLRSFENYTYDITLGSKIIIFFFDSLTMNELPYYQHPYGILPQPISKWIELKIVEPLYGFLELVGQYLENNFLNYPLYELKRTELFYLLKKLYRKEELDYFFYLSSTHSAEFERLIAENYIKAKTVTDLAQMIGYGVNSFRMKFKKVFGIPAYEWLMQEKSKRLLVAIANSEDDFKNIIDEFDFSSHSHFYKFCKARFGYSPTELRKKLKSL”, the “soluble on expression in E. coli” value is on record as “not soluble”.

“EELEERLVEWIVVQCGPDVGRPDRGRLGFQVWLKNGVILSKLVNSLYPEGSKPVKVPENPPSMVFKQMEQVAQFLKAAEDYGVIKTDMFQTVDLYEGKDMAAVQRTLMALGSLAVTKNDGNYRGDPNWFMK”: the “soluble on expression in E. coli” value is “soluble”.

With “SLDMIRIDSQTNSSHLKDEFQTLNSVTPRLQAEDCSIACLPRNHDKNRFMDMLPPDRCLPFLITIDGESSNYINAALMDSYRQPAAFIVTQYPLPNTVKDFWRLVYDYGCTSIVMLNEVDLSQGCPQYWPEEGMLRYGPIQVECMSCSMDCDVINRIFRICNLTRPQEGYLMVQQFQYLGWASHREVPGSKRSFLKLILQVEKWQEECEEGEGRTIIHCLNGGGRSGMFCAIGIVVEMVKRQNVVDVFHAVKTLRNSKPNMVEAPEQYRFCYDVALEYLESS”, the “soluble on expression in E. coli” value is reported as “not soluble”.

For “MATKARVMYDFAAEPGNNELTVNEGEIITITNPDVGGGWLEGRNIKGERGLVPTDYVEILPSDGKDQFSCGNSVADQAFLDSLSASTAQASSSAASNNHQVGSGNDPWSAWSASKSGNWESSEGWGAQPEGAGAQRNTNTPNNWDTAFGHPQAYQGPATGDDDDWDEDWDGPKSSSYFKDSESADAGGAQRGNSRASSSSMKIPLNKFPGFAKPGTEQYLLAKQLAKPKEKIPIIVGDYGPMWVYPTSTFDCVVADPRKGSKMYGLKSYIEYQLTPTNTNRSVNHRYKHFDWLYERLLVKFGSAIPIPSLPDKQVTGRFEEEFIKMRMERLQAWMTRMCRHPVISESEVFQQFLNFRDEKEWKTGKRKAERDELAGVMIFSTMEPEAPDLDLVEIEQKCEAVGKFTKAMDDGVKELLTVGQEHWKRCTGPLPKEYQKIGKALQSLATVFSSSGYQGETDLNDAITEAGKTYEEIASLVAEQPKKDLHFLMECNHEYKGFLGCFPDIIGTHKGAIEKVKESDKLVATSKITLQDKQNMVKRVSIMSYALQAEMNHFHSNRIYDYNSVIRLYLEQQVQFYETIAEKLRQALSRFPVM”, the “soluble on expression in E. coli” value is “soluble”.

With “MFPKNAWYVACTPDELAGKPLGRRICDEPMVFYRGEDGRVAALEDFCPHRGAPLSLGFVEDGVLVCGYHGLAMGEDGRTRAMPGQRVRGFPCIRRFPVQERHGFVWVWPGAEEQADDALIPRLEWAESPDWAYGGGLYHIHCDYRLMIDNLMDLTHETYVHASSIGQKEIDEAAPTTRVEGDEVITSRHMQNVMAPPFWRMALRGNGLADDVAVDRWQICRFTPPSHVLIEVGVAHAGHGGYQAPAERKAASIVVDFITPESATSIWYFWGMARNFQAHDQALTESIREGQGKIFGEDLEMLESQQRNLLRHPRRDLLKLNIDAGGVQARRIIERLLADER”, the “soluble on expression in E. coli” value is given as “not soluble”.

As for “MIFRFGFVSNAMSLWDASPAKTLTFARYSKLSKTERKEALLTVTKANLRNTMRTLHYIIGHGIPLYRFSSSIVPLATHPDVMWDFVTPFQKEFREIGELVKTHQLRTSFHPNQFTLFTSPKESVTKNAVTDMAYHYRMLEAMGIADRSVINIHIGGAYGNKDTATAQFHQNIKQLPQEIKERMTLENDDKTYTTEETLQVCEQEDVPFVFDFHHFYANPDDHADLNVALPRMIKTWERIGLQPKVHLSSPKSEQAIRSHADYVDANFLLPLLERFRQWGTNIDFMIEAKQKDKALLRLMDELSSIRGVKRIGGGALQWKS”, the “soluble on expression in E. coli” value is given as “not soluble”.
